The nature of the series: soluble on expression in E. coli; label from the status in PepcDB or PDB records.
For “HKEFAVTMRPTEASERCHLRGSYTLRAGESALELWGGPEPGTQLYDWPYRFLRRFGRDKVTFSFEAGRRCVSGEGNFEFETRQGNEIFLALEEAISAQKN”, the “soluble on expression in E. coli” value is on record as “soluble”. To “MPKLYVIPTPIGNLKDITLRALEVLKEVNYIACEDTRRTMILLNHYGIKGKKLISYYEPKEEKQIPKILKVLEKEDVALVTDAGMPAISDPGYRLIRKCIEKGIEIEVLPGPSAVITALVGSGLPPDRFLFVGFPPKKGTKGFFEELKSCEDTTVILFENPNRLLKTLKIIHEVFGNVQACVARELTKLHEEYIRGNLEEIIQELESREKIKGEVVVLFRILEHHHHHH” belongs “soluble”; to “MDERWMVMKITIVFENHAGYRKGLIGYHGFSALVEANGYRVLVDTGTDGKVLLNNMSELGISPDDIDALFITHGHYDHTGGLRELLSARTEALDIYAHPGIFKRRLALKPKKREIGIPFTREELEELGGKFILSDKSKEILPGFISSGEIERITWDRAVGYFPDGSKDPVRDDMALIVEEGSKSVVITGCGHSGIINIAIHSKKLTNNRIAALIGGFHLKGIERSLLDEAVKKLRELEIEKLYPGHCTGIEEFAYLWSKFGNVEGIHVGKEIKILEHHHHHH”, “soluble”; to “VDNVLVIIGPTASGKTKLAIEIAKRANGEIISADSMQIYKYMDIGTAKPDEEEKEGIKHYLIDEVTPDEEFSVARFKELALKYIDEILSKGKLPIVAGGTGLYINSLIYNLEFSDTICDWELRKKLEQEAKEKGNEYLHNKLKEIDPKAAEKIHMNNVKRVIRAIEVYTYTKKPISVHQEESRKNPPRHNFILIGITMDREKLYDRINKRVDLMLEKGLVKEVEKLVEMGYDKSTIAMQGLGYKEILSYLRGERSLDEAVEILKRDTRRYAKRQMTWFRKIENVYWINKDEFDSDEKIIKNLKYYLATFGIFL”, “soluble”. For “MPQQKNFVTMPAQHQNKQPGIESLMNPLPQFEDPNYKGSEKLKGKNVLITGGDSGIGRAVSIAFAKEGANIAIAYLDEEGDANETKQYVEKEGVKCVLLPGDLSDEQHCKDIVQETVRQLGSLNILVNNVAQQYPQQGLEYITAEQLEKTFRINIFSYFHVTKAALSHLKQGDVIINTASIVAYEGNETLIDYSATKGAIVAFTRSLSQSLVQKGIRVNGVAPGPIWTPLIPSSFDEKKVSQFGSNVPMQRPGQPYELAPAYVYLASSDSSYVTGQMIHVNGGVIVNG”, the “soluble on expression in E. coli” value was “not soluble”. With “MFEIRDVDLAGRIGRIYTQHGVVETPAFFPVIDVYRQEVSVDEVRAAGFGQVITNAYLLWKRFGWEAAEKGVHRILGFPGVVMTDSGAYQILEYGGVELSQGEVVEYQKRLGSDIAVILDIPTGDVGRREAEESVRETIRRALEARVMIEGDERIWVYPVQGGRYFDLVEESARVGGRLGFYRMYGIGSPTVFLERYMYHVVVEAVYRAKKHLPWGRPVHLFGAGHPLIFPYAVALGVDTFDSASYILYAREGRYITEYGVYRIEDLDYLPCSCPVCSRYTPQELREMDRVERTRLLALHNLYVISASMRRVKQAIREGRLWELLEETSRKHPSTARVMARMRRYIDALEKGSARGRGVVRGVRAYGLESLSNPRLSRFSSDAARLVEAMAEKWGGGKAVLKPLDPKPEPGQCESMVGGGEWILFYQPFLGVFPVEACGAYPSLQIDYPQEGLPAEVIGDLASKIASTVSILRGRGFTVRLEYCGKVEWQARAVEALKTAAAGDLPTVEACG” the entry was “soluble”. To “MTKIFIRDDNGGTEMSQDPFQEREAEKYANPIPSREFILEHLTKREKPASRDELAVELHIEGEEQLEGLRRRLRAMERDGQLVFTRRQCYALPERLDLVKGTVIGHRDGYGFLRVEGRKDDLYLSSEQMKTCIHGDQVLAQPLGADRKGRREARIVRVLVPKTSQIVGRYFTEAGVGFVVPDDSRLSFDILIPPDQIMGARMGFVVVVELTQRPTRRTKAVGKIVEVLGDNMGTGMAVDIALRTHEIPYIWPQAVEQQVAGLKEEVPEEAKAGRVDLRDLPLVTIDGEDARDFDDAVYCEKKRGGGWRLWVAIADVSYYVRPSTPLDREARNRGTSVYFPSQVIPMLPEVLSNGLCSLNPQVDRLCMVCEMTVSSKGRLTGYKFYEAVMSSHARLTYTKVWHILQGDQDLREQYAPLVKHLEELHNLYKVLDKAREERGGISFESEEAKFIFNAERRIERIEQTQRNDAHKLIEECMILANISAARFVEKAKEPALFRIHDKPSTEAITSFRSVLAELGLELPGGNKPEPRDYAELLESVADRPDAEMLQTMLLRSMKQAIYDPENRGHFGLALQSYAHFTSPIRRYPDLTLHRAIKYLLAKEQGHQGNTTETGGYHYSMEEMLQLGQHCSMAERRADEATRDVADWLKCDFMLDQVGNVFKGVISSVTGFGFFVRLDDLFIDGLVHVSSLDNDYYRFDQVGQRLMGESSGQTYRLGDRVEVRVEAVNMDERKIDFSLISSERAPRNVGKTAREKAKKGDAGKKGGKRRQVGKKVNFEPDSAFRGEKKTKPKAAKKDARKAKKPSAKTQKIAAATKAKRAAKKKVAELEHHHHHH” belongs “soluble”. To “MSDGKEELVNRAKLAEQAERYDDMAASMKKVTELGAELSNEERNLLSVAYKNVVGARRSSWRVISSIEQKTEGSEKKQQMAKEYREKVEKELRDICQDVLNLLDKFLIPKAGAAESKVFYLKMKGDYYRYLAEVASGDDRNSVVEKSQQSYQEAFDIAKDKMQPTHPIRLGLALNFSVFFYEILNAPDKACQLAKQAFDDAIAELDTLNEDSYKDSTLIMQLLRDNLTLWTSDAATDDTDANETEGGN” belongs “soluble”.

With “MNHTEIRVVTGPANYFSHAGSLERLTDFFTPEQLSHAVWVYGERAIAAARPYLPEAFERAGAKHLPFTGHCSERHVAQLAHACNDDRQVVIGVGGGALLDTAKALARRLALPFVAIPTIAATCAAWTPLSVWYNDAGQALQFEIFDDANFLVLVEPRIILQAPDDYLLAGIGDTLAKWYEAVVLAPQPETLPLTVRLGINSACAIRDLLLDSSEQALADKQQRRLTQAFCDVVDAIIAGGGMVGGLGERYTRVAAAHAVHNGLTVLPQTEKFLHGTKVAYGILVQSALLGQDDVLAQLITAYRRFHLPARLSELDVDIHNTAEIDRVIAHTLRPVESIHYLPVTLTPDTLRAAFEKVEFFRI”, the “soluble on expression in E. coli” value was “not soluble”. “MGHHHHHHSHMPKVKRSRKAPPDGWELIEPTLDELDQKMREAETEPHEGKRKVESLWPIFRIHHQKTRYIFDLFYKRKAISRELYEYCIKEGYADKNLIAKWKKQGYENLCCLRCIQTRDTNFGTNCICRVPKSKLEVGRIIECTHCGCRGCSG”: the “soluble on expression in E. coli” value is listed as “soluble”.

Take “MNVLIIEDDPMVDFIHRNYLEKLNLFDRIISSDSMKAVQSILTDYAIDLILLDIHITDGNGIQFLEKWRTQHIPCEVIIISAANDGNIIRDGFHLGIIDYLIKPFTFERFQESIQQFVTHREHLANQQLEQAQIDQLKCLTSKKDTKNKQLLEKGLSESTFQWIMENIKVFDQPFTIQELASACHLSHVSVRKYIAYLEENKQLNSQQIFTKVGRPYRVYW”: the “soluble on expression in E. coli” value was “not soluble”. To “MFNLRPAATLVALAAALSSLPALAEEARYNQISLRAEVNQEVQRDLMLVTLYTEAQDSDPARLAAQITETLNKALGQARQVKDVKIRQGSRNSYPVYDDKGQKITGWRERAELRLESADFAVLSKLTGELLTDLKMGGMDFSISPSTRKTSEDALLKDAVTAFKARAQLVTEALGGKGYKLVNLNLNTSGYPQPYLRAPVMMMAKSSRDESAPTPDVEAGTSQVSVAADGVIEVAIPLEHHHHHH” belongs “soluble”. With “MEKYPEIQQMRSKMREGDDTNEFKIRPLKGLSHPSGNLQMQRFQEDRRERIHSIRKRENQDGRLDLIGVVGEITVVIDDVVYEEEKLRKVVFTMKG” the entry was “not soluble”; with “MLNNKRLFTSESVTEGHPDKIADQVSDAILDAILKDDPNARVACETTVTTGMALIAGEISTTTYVDIPKVVRETIKEIGYTRAKYGYDYETMAILTAIDEQSPDIAQGVDKALEYRDKDSEEEIEATGAGDQGLMFGYATNETETYMPLAIYLSHQLAKRLSDVRKDGTLNYLRPDGKVQVTVEYDENDNPVRIDTIVVSTQHAEDVTLEQIQEDIKAHVIYPTVPENLINEQTKFYINPTGRFVIGGPQGDAGLTGRKIIVDTYGGYARHGGGCFSGKDPTKVDRSAAYAARYVAKNIVAAGLADQCEVQLAYAIGVAEPVSIAIDTFGTGKVSEGQLVEAVRKHFDLRPAGIIKMLDLKQPIYKQTAAYGHFGRTDVLFPWEKLDKVEELKDAVK”, “not soluble”; with “MAAMITPPGAGVKDKKRAILEATLAVLRERGLSGLKMEEVARRAEVGKGTIYLYFRDKRDLLKALVEERTWAFYREVEEVVRRKAPFFVRLEEVLRRRLAWVQEWRGLWAAVAREAMDDPTPWLKGLHEHYLRLLEELLRSGQSEGAVRTGLSPRATAAVIAAMGCTPSLEVEAYLEHLMEVLRKGVEP”, “soluble”. With “MGSDKIHHHHHHMTHLKIFLLLIVCALSVLDGKAQTGIALTDELNGKRIGVIGDSYVRNHKEPFENTWHYKFAKKHGMEYFNYGKNGNSIAYSSPRWGKAMYLRYAEMADSLDYVIVIGGHNDAFKLDSIGGIDNFKDKMEILCKGLVEKYPTAKIFFFTRWNCKNFKGSDSEKVVDAMIEVCGNYSIPIFDCARKGSIYADNDTFRRIYFQKSKNNTDTAHLNSKGHDRFLKVAESFLLQY” the entry was “not soluble”; with “MTFEEYQKEAQKTALYPEAYRLVYPALGLAGEAGELANKVKKVLRDHGGRLSEEAREAILAELGDVLWYVAQVATDLGESLEAVAQANLAKLRSRKERGRLGGDGDDR”, “soluble”; with “MPADTRPAAIVLMGPTASGKSQLAIDIAKRWGGEVISVDSVLVYRGLDIGTAKPNAAMRASVPHHLIDICEPWETYSAADFAHDARAAIDMIVRRGALPILTGGTGLYFRALLAGLSDMPPAHPEIRAMIAAEAKRDSWAALHTRLAEVDAITAARIHATDPQRIQRALEVYLVSGQSMSDWQNQPPKQRLPLRVLKLVLAPTHRKVLHFRIAQRFKAMLDNGLLAEVNALRTHPSIHAMARPLDLPAMRAVGYRQCWEHLDGMYTAEMLYQRSVAATRQLAKRQLTWLRGELDALWFDPEHDQSRIEKVMEAFLNRLEHHHHHH”, “not soluble”.

Take “MGLTISSLFSRLFGKKQMRILMVGLDAAGKTTILYKLKLGEIVTTIPTIGFNVETVEYKNICFTVWDVGGQDKIRPLWRHYFQNTQGLIFVVDSNDRERIQEGAAVLEKMLLEDELQDAVLLLFANKQDLPNAMAISEMTDKLGLQSLRNRTWYVQATCATQGTGLYEGLDWLSHELSNVK”: the “soluble on expression in E. coli” value is given as “soluble”. With “MNMLEKIQSQLEHLSKSERKVAEVILASPDNAIHSSIAALALEANVSEPTVNRFCRSMDTRGFPDFKLHLAQSLANGTPYVNRNVNEDDSVESYTGKIFESAMATLDHVRHSLD” the entry was “not soluble”. Regarding “MITCGQVSSSLAPCIPYVRGGGAVPPACCNGIRNVNNLARTTPDRQAACNCLKQLSASVPGVNPNNAAALPGKCGVSIPYKISASTNCATVK”, the “soluble on expression in E. coli” value is “soluble”. Turning to “MGSDKIHHHHHHMNSLPTESPQSKKSLPSTSMLAAFDAAARTGSFTAAAKDLALTQGAISRQVNALEMQISVNLFHRHKQNISLTEAGKTYAKEVNSALSHIRSATLNLMTNPDGGILNIAILPTFGSRWLMPRLADFLAKHPRITINTVCKLSQFDFSHEDIHCAIHFGKADWSQANCTFLMAEESVPVCSPKLFEQAELAKVDNVCARLINLPLLHIATRPNAWQHWFDEHNVDSTTKEQPKKKTLQDMHFEQFSIVTNAAVAGLGVALLPKFLVESELQRGELQVICNKPQRTDNGYYLVTPNDKLNYAPMVAFTRWLSQVIKSEKPSILNK”, the “soluble on expression in E. coli” value was “not soluble”.
